Measurements taken from paper PMC2757176 (The Journal of biological chemistry, 2009).
Non-standard residues stand in square brackets, D forms with d. No end group written: not given here. *: point of attachment. Biotin = O=C1N[C@H]2[C@H](CS[C@H]2CCCCC(=O)*)N1; pY = N[C@@H](Cc1ccc(OP(=O)(O)O)cc1)C(=O)O

B1: FYN-SH3-SH2 (aa 82 to 248) (domain or fragment)
chain: not shown
B2: EAT-2 127 peptide, biotinylated, phosphorylated (peptide)
peptide: Biotin-NSNSD[pY]VDVLP
B3: LCK-SH3-SH2 (aa 58 to 230) (domain or fragment, human, UniProt P06239 58-230, looked up)
chain: ASPLQDNLVIALHSYEPSHDGDLGFEKGEQLRILEQSGEWWKAQSLTTGQEGFIPFNFVAKANSLEPEPWFFKNLSRKDAERQLLAPGNTHGSFLIRESESTAGSFSLSVRDFDQNQGEVVKHYKIRNLDNGGFYISPRITFPGLHELVRHYTNASDGLCTRLSRPCQTQKPQ

Key:
Assay in all cases: SPR
[1] = target: B1
[2] = target: B3
[3] = target: B2
[4] = target: T1, PLC-γ1 SH2 N+C (aa 545 to 749) (human, UniProt P19174 545-749)
T1 sequence (looked up): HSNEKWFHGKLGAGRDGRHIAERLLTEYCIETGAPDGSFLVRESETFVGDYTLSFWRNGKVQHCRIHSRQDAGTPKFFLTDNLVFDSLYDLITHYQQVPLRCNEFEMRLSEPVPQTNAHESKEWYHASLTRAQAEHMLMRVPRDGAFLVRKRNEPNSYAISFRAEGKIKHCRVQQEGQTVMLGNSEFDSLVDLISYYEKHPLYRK

Biotin-QKGPPLPRPRVQPKPPHG [CD2-322 peptide, biotinylated]
Kd [1]: ~4 µM
Kd [2]: > 1000 µM

B1
fold weaker than FYN binding to the CD244 ITSM [3]: ~5 fold

B2
Kd [4]: ~0.04 µM

Biotin-HNPG[pY]LVVLP [LAT 132 peptide, biotinylated, phosphorylated]
Kd [4]: ~0.02 µM

Biotin-HPPPPPGHRSQAPSHRPPPPGHRVQ [CD2-281-305 peptide, biotinylated]
Kd [1]: ~4 µM
Kd [2]: > 1000 µM

B3
fold weaker than FYN binding to human EAT-2 [3]: 10 fold

Biotin-EFLTI[pY]EDVKD [CD244 ITSM 1 peptide, biotinylated, phosphorylated]
Kd [1]: ~0.2 µM
Kd [2]: ~2 µM
